Assay results from the supplement of paper PMC5998384.

Assays:
HeLa Kyoto [1] = experiment: solubility in G1/S (NP-40 vs SDS abundance) (log2 ratio); higher = more soluble; details: cell cycle stage: G1/S
HeLa Kyoto [2] = experiment: melting temperature (median over replicates), in situ; higher = more thermally stable
HeLa Kyoto [3] = experiment: solubility change mitosis vs G1/S (difference of NP-40 vs SDS log2 ratios) (log2 ratio difference); higher = more soluble in mitosis
HeLa Kyoto [4] = experiment: thermal stability score vs G1/S (z-score of summed log2 fold changes over temperatures); higher = more thermally stable than in G1/S
[5] = cell cycle stage: early G1 (4.5 h after nocodazole release)
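Throughout, for melting temperature (median over replicates), in situ: HeLa Kyoto cells synchronized by double thymidine or nocodazole block, proteins quantified by TMT10plex mass spectrometry, three independent biological replicates.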
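Throughout, for solubility change mitosis vs G1/S (difference of NP-40 vs SDS log2 ratios): synchronized HeLa Kyoto cells (double thymidine block for G1/S, nocodazole release for mitosis), protein amounts in NP-40 versus SDS lysates quantified by mass spectrometry, three biological replicates.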
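Throughout, for solubility in G1/S (NP-40 vs SDS abundance): HeLa Kyoto cells arrested at G1/S by double thymidine block, proteins quantified by TMT10plex mass spectrometry in mild NP-40 versus SDS extracts, three biological replicates.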
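Throughout, for thermal stability score vs G1/S (z-score of summed log2 fold changes over temperatures): synchronized HeLa Kyoto cells, proteins quantified by TMT10plex mass spectrometry, three biological replicates, mitosis taken 0.5 h after nocodazole release, G1/S directly after double thymidine block.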

| Sequence | solubility in G1/S (log2) (HeLa Kyoto [1]) | melting temperature (HeLa Kyoto [2]; cell cycle stage: G1/S) [°C] | melting temperature (HeLa Kyoto [2]; cell cycle stage: mitosis) [°C] | solubility change mitosis (log2) (HeLa Kyoto [3]) | thermal stability score (HeLa Kyoto [4]; [5]) | thermal stability score (HeLa Kyoto [4]; cell cycle stage: mitosis) |
| --- | --- | --- | --- | --- | --- | --- |
| MEKSSSCESLGSQPAAARPPSVDSLSSASTSHSENSVHTKSASVVSSDSISTSADNFSPDLRVLRESNKLAEMEEPPLLPGENIKDMAKDVTYICPFTGAVRGTLTVTNYRLYFKSMERDPPFVLDASLGVINRVEKIGGASSRGENSYGLETVCKDIRNLRFAHKPEGRTRRSIFENLMKYAFPVSNNLPLFAFEYKEVFPENGWKLYDPLLEYRRQGIPNESWRITKINERYELCDTYPALLVVPANIPDEELKRVASFRSRGRIPVLSWIHPESQATITRCSQPMVGVSGKRSKEDEKYLQAIMDSNAQSHKIFIFDARPSVNAVANKAKGGGYESEDAYQNAELVFLDIHNIHVMRESLRKLKEIVYPNIEETHWLSNLESTHWLEHIKLILAGALRIADKVESGKTSVVVHCSDGWDRTAQLTSLAMLMLDGYYRTIRGFEVLVEKEWLSFGHRFQLRVGHGDKNHADADRSPVFLQFIDCVWQMTRQFPTAFEFNEYFLITILDHLYSCLFGTFLCNSEQQRGKENLPKRTVSLWSYINSQLEDFTNPLYGSYSNHVLYPVASMRHLELWVGYYIRWNPRMKPQEPIHNRYKELLAKRAELQKKVEELQREISNRSTSSSERASSPAQCVTPVQTVV [MTMR2] | 0.0322 | 53.4 | 53 | -0.12 | -1.45 | -1.51 |
| MELCGLGLPRPPMLLALLLATLLAAMLALLTQVALVVQVAEAARAPSVSAKPGPALWPLPLLVKMTPNLLHLAPENFYISHSPNSTAGPSCTLLEEAFRRYHGYIFGFYKWHHEPAEFQAKTQVQQLLVSITLQSECDAFPNISSDESYTLLVKEPVAVLKANRVWGALRGLETFSQLVYQDSYGTFTINESTIIDSPRFSHRGILIDTSRHYLPVKIILKTLDAMAFNKFNVLHWHIVDDQSFPYQSITFPELSNKGSYSLSHVYTPNDVRMVIEYARLRGIRVLPEFDTPGHTLSWGKGQKDLLTPCYSRQNKLDSFGPINPTLNTTYSFLTTFFKEISEVFPDQFIHLGGDEVEFKCWESNPKIQDFMRQKGFGTDFKKLESFYIQKVLDIIATINKGSIVWQEVFDDKAKLAPGTIVEVWKDSAYPEELSRVTASGFPVILSAPWYLDLISYGQDWRKYYKVEPLDFGGTQKQKQLFIGGEACLWGEYVDATNLTPRLWPRASAVGERLWSSKDVRDMDDAYDRLTRHRCRMVERGIAAQPLYAGYCNHENM [HEXB] | 0.38 | 56.7 | 58 | 0.0247 | -1.76 | -0.878 |
| MELDSALEAPSQEDSNLSEELSHSAFGQAFSKILHCLARPEARRGNVKDAVLKDLGDLIEATEFDRLFEGTGARLRGMPETLGQVAKALEKYAAPSKEEEGGGDGHSEAAEKAAQVGLLFLKLLGKVETAKNSLVGPAWQTGLHHLAGPVYIFAITHSLEQPWTTPRSREVAREVLTSLLQVTECGSVAGFLHGENEDEKGRLSVILGLLKPDLYKESWKNNPAIKHVFSWTLQQVTRPWLSQHLERVLPASLVISDDYQTENKILGVHCLHHIVLNVPAADLLQYNRAQVLYHAISNHLYTPEHHLIQAVLLCLLDLFPILEKTLHWKGDGARPTTHCDEVLRLILTHMEPEHRLLLRRTYARNLPAFVNRLGILTVRHLKRLERVIIGYLEVYDGPEEEARLKILETLKLLMQHTWPRVSCRLVVLLKALLKLICDVARDPNLTPESVKSALLQEATDCLILLDRCSQGRVKGLLAKIPQSCEDRKVVNYIRKVQQVSEGAPYNGT [TTI2] | 0.208 | 50.5 | 49.7 | -0.201 | 0.152 | 0.904 |
| MELFLAGRRVLVTGAGKGIGRGTVQALHATGARVVAVSRTQADLDSLVRECPGIEPVCVDLGDWEATERALGSVGPVDLLVNNAAVALLQPFLEVTKEAFDRSFEVNLRAVIQVSQIVARGLIARGVPGAIVNVSSQCSQRAVTNHSVYCSTKGALDMLTKVMALELGPHKIRVNAVNPTVVMTSMGQATWSDPHKAKTMLNRIPLGKFAEVEHVVNAILFLLSDRSGMTTGSTLPVEGGFWAC [DCXR] | 0.282 | 57.7 | 55.7 | -0.0268 | -1.92 | -1.77 |
| MELSAEYLREKLQRDLEAEHVEVEDTTLNRCSCSFRVLVVSAKFEGKPLLQRHRLVNACLAEELPHIHAFEQKTLTPDQWARERQK [BOLA2] | -0.0477 | 50.9 | 51.9 | 0.186 | 0.374 | 0.288 |
| MEMEKEFEQIDKSGSWAAIYQDIRHEASDFPCRVAKLPKNKNRNRYRDVSPFDHSRIKLHQEDNDYINASLIKMEEAQRSYILTQGPLPNTCGHFWEMVWEQKSRGVVMLNRVMEKGSLKCAQYWPQKEEKEMIFEDTNLKLTLISEDIKSYYTVRQLELENLTTQETREILHFHYTTWPDFGVPESPASFLNFLFKVRESGSLSPEHGPVVVHCSAGIGRSGTFCLADTCLLLMDKRKDPSSVDIKKVLLEMRKFRMGLIQTADQLRFSYLAVIEGAKFIMGDSSVQDQWKELSHEDLEPPPEHIPPPPRPPKRILEPHNGKCREFFPNHQWVKEETQEDKDCPIKEEKGSPLNAAPYGIESMSQDTEVRSRVVGGSLRGAQAASPAKGEPSLPEKDEDHALSYWKPFLVNMCVATVLTAGAYLCYRFLFNSNT [PTPN1] | 0.0951 | 49.4 | 50.1 | -0.122 | 1.7 | 4.54 |
| MEMEQEKMTMNKELSPDAAAYCCSACHGDETWSYNHPIRGRAKSRSLSASPALGSTKEFRRTRSLHGPCPVTTFGPKACVLQNPQTIMHIQDPASQRLTWNKSPKSVLVIKKMRDASLLQPFKELCTHLMEENMIVYVEKKVLEDPAIASDESFGAVKKKFCTFREDYDDISNQIDFIICLGGDGTLLYASSLFQGSVPPVMAFHLGSLGFLTPFSFENFQSQVTQVIEGNAAVVLRSRLKVRVVKELRGKKTAVHNGLGENGSQAAGLDMDVGKQAMQYQVLNEVVIDRGPSSYLSNVDVYLDGHLITTVQGDGVIVSTPTGSTAYAAAAGASMIHPNVPAIMITPICPHSLSFRPIVVPAGVELKIMLSPEARNTAWVSFDGRKRQEIRHGDSISITTSCYPLPSICVRDPVSDWFESLAQCLHWNVRKKQAHFEEEEEEEEEG [NADK] | 0.208 | 61.1 | 59.2 | 0.129 | -6.99 | -2.68 |
| MENMAEEELLPLEKEEVEVAQVQVPTPARDSAGVPAPAPDSALDSAPTPASAPAPAPALAQAPALSPSLASAPEEAKSKRHISIQRQLADLENLAFVTDGNFDSASSLNSDNLDAGNRQACPLCPKEKFRACNSHKLRRHLQNLHWKVSVEFEGYRMCICHLPCRPVKPNIIGEQITSKMGAHYHCIICSATITRRTDMLGHVRRHMNKGETKSSYIAASTAKPPKEILKEADTDVQVCPNYSIPQKTDSYFNPKMKLNRQLIFCTLAALAEERKPLECLDAFGATGIMGLQWAKHLGNAVKVTINDLNENSVTLIQENCHLNKLKVVVDSKEKEKSDDILEEGEKNLGNIKVTKMDANVLMHLRSFDFIHLDPFGTSVNYLDSAFRNIRNLGIVSVTSTDISSLYAKAQHVARRHYGCNIVRTEYYKELAARIVVAAVARAAARCNKGIEVLFAVALEHFVLVVVRVLRGPTSADETAKKIQYLIHCQWCEERIFQKDGNMVEENPYRQLPCNCHGSMPGKTAIELGPLWSSSLFNTGFLKRMLFESLHHGLDDIQTLIKTLIFESECTPQSQFSIHASSNVNKQEENGVFIKTTDDTTTDNYIAQGKRKSNEMITNLGKKQKTDVSTEHPPFYYNIHRHSIKGMNMPKLKKFLCYLSQAGFRVSRTHFDPMGVRTDAPLMQFKSILLKYSTPTYTGGQSESHVQSASEDTVTERVEMSVNDKAEASGCRRW [TRMT1L] | -0.537 | 51.8 | 50.9 | 0.324 | -0.774 | -3 |
| MENQVLTPHVYWAQRHRELYLRVELSDVQNPAISITENVLHFKAQGHGAKGDNVYEFHLEFLDLVKPEPVYKLTQRQVNITVQKKVSQWWERLTKQEKRPLFLAPDFDRWLDESDAEMELRAKEEERLNKLRLESEGSPETLTNLRKGYLFMYNLVQFLGFSWIFVNLTVRFCILGKESFYDTFHTVADMMYFCQMLAVVETINAAIGVTTSPVLPSLIQLLGRNFILFIIFGTMEEMQNKAVVFFVFYLWSAIEIFRYSFYMLTCIDMDWKVLTWLRYTLWIPLYPLGCLAEAVSVIQSIPIFNETGRFSFTLPYPVKIKVRFSFFLQIYLIMIFLGLYINFRHLYKQRRRRYGQKKKKIH [HACD3] | -0.3 | 53.8 | 53.9 | -0.00775 | -0.451 | -1.3 |
